In publication PMC2396407:

Key:
p53 [1] = biological target: T1, p53 (UniProt P04637 1-393); assay: competition
TAp63γ [2] = biological target: T2, TAp63γ (UniProt Q9H3D4-5 40-487); assay: competition
T2 sequence: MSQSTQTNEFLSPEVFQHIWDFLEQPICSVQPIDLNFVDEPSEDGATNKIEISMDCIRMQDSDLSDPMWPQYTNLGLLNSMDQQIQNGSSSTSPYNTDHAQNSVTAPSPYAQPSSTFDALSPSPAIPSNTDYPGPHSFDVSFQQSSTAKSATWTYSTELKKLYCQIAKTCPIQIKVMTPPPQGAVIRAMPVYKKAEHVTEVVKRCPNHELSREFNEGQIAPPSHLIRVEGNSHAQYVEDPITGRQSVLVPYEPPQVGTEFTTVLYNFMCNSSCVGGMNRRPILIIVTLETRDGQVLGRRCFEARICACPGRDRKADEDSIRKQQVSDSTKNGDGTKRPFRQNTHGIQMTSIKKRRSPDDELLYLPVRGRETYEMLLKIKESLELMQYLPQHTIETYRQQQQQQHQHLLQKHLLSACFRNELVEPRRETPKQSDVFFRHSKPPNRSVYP

p53 [3] = biological target: T1, p53; assay: competition; remark: listed apart in the source
TAp63γ [4] = biological target: T2, TAp63γ; assay: competition; remark: listed apart in the source
p53 [5] = biological target: T1, p53; assay: EMSA
TAp63γ [6] = biological target: T2, TAp63γ; assay: EMSA
p53 [7] = biological target: T1, p53; assay: EMSA, supershift
TAp63γ [8] = biological target: T2, TAp63γ; assay: EMSA, supershift

T1 sequence (P04637 whole entry): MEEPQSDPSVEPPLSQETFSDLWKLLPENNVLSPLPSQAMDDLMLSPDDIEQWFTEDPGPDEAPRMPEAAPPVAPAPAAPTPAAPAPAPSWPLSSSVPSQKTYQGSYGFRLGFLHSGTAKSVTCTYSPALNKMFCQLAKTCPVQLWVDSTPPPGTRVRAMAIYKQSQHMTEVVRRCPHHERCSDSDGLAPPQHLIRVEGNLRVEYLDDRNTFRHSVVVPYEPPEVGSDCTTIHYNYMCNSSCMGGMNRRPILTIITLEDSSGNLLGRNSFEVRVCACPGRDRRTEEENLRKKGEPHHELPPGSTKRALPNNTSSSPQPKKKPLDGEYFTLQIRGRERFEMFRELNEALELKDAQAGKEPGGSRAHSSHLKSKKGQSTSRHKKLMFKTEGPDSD

B1: S100A2 site 2 mut-1 (dsDNA)
DNA 1: GGGTGGGATTGGATTGAGGTGGATTTGGTTTCCTT
DNA 2: AAGGAAACCAAATCCACCTCAATCCAATCCCACCC
Question: Does B1 bind (p53 [1])?
Answer: Result: no binding

Question: Does B1 bind (TAp63γ [2])?
Answer: Result: no binding

B2: S100A2 site 2 mut-2 (dsDNA)
DNA 1: GGGTGGGATCATGTTGAGGCATGTTTGGTTTCCTT
DNA 2: AAGGAAACCAAACATGCCTCAACATGATCCCACCC
Question: What does the source list for B2?
Answer: binding result (p53 [3]): binds; binding result (TAp63γ [4]): binds

B3: mdm2 p53 site (dsDNA)
DNA 1: GGGCGGCCGCTGGTCAAGTTGGGACACGTCCGG
DNA 2: CCGGACGTGTCCCAACTTGACCAGCGGCCGCCC
Question: Does B3 bind (p53 [5])?
Answer: Result: binds

Question: Does B3 bind (TAp63γ [6])?
Answer: Result: binds

B4: p21 (p21WAF1/CIP1 p53 site) (dsDNA)
DNA 1: GGCCATCAGGAACATGTCCCAACATGTTGAGCTCT
DNA 2: AGAGCTCAACATGTTGGGACATGTTCCTGATGGCC
Question: Which results are given for B4?
Answer: binding result (p53 [7]): binds; binding result (TAp63γ [8]): binds
